According to PMC6497955, “Development and structural characterization of an engineered multi-copper oxidase reporter of protein–protein interactions” (The Journal of Biological Chemistry, 2019):

Substrate: COc1cc(C=NN=Cc2cc(OC)c(O)c(OC)c2)cc(OC)c1O
Assay: purified protein
Format: biochemical, Escherichia coli
Conditions: 50 mM acetate pH 5.2, 0.33 mM copper, room temperature
[1] = CueO-HA, HA epitope graft TSYPYDVPDYA (from primers), no antibody
[2] = CueO-12.1, graft PRFMDYWEGLN (from primers; residues 384–394 replaced)
[3] = CueO-PM2, graft TSFAEYWALLS (from primers), no MDM2
[4] = CueO-12.1CON, graft PRAMDYAEGAN (from primers)

B1: CueO (Escherichia coli K-12; G386S/G389Y/G391V/H387Y/H390D/H395A/M358I/M385T/M388P/M393D/N392P/N394Y) (protein)
chain: AERPTLPIPDLLTTDARNRIQLTIGAGQSTFGGKTATTWGYNGNLLGPAVKLQRGKAVTVDIYNQLTEETTLHWHGLEVPGEVDGGPQGIIPPGGKRSVTLNVDQPAATCWFHPHQHGKTGRQVAMGLAGLVVIEDDEILKLMLPKQWGIDDVPVIVQDKKFSADGQIDYQLDVMTAAVGWFGDTLLTNGAIYPQHAAPRGWLRLRLLNGCNARSLNFATSDNRPLYVIASDGGLLPEPVKVSELPVLMGERFEVLVEVNDNKPFDLVTLPVSQMGMAIAPFDKPHPVMRIQPIAISASGALPDTLSSLPALPSLEGLTVRKLQLSMDPILDMMGMQMLMEKYGDQAMAGMDHSQMTSYPYDVPDYAMNHGGKFDFHHANKINGQAFDMNKPMFAAAKGQYERWVISGVGDMMLHPFHIHGTQFRILSENGKPPAAHRAGWKDTVKVEGNVSEVLVKFNHDAPKEHAYMAHCHLLEHEDTGMMLGFTV
notes: C-terminal His6 tag, pET22b, full-length gene cloned, expressed in E. coli BL21(DE3); crystal models start at residue 29/30; given PDB entries are of the CueO-12.1 and CueO-PM2 variants
**Q.** With B1 as the protein, how does the Km [1] read?
**A.** The Km was 286.06 ± 22.89 µM.

**Q.** What about the kcat [1] of the same protein?
**A.** Its kcat is 1.49 ± 0.151 s⁻¹.

**Q.** And the kcat/Km [1]?
**A.** Its kcat/Km is 5170 M⁻¹ s⁻¹.

B2: CueO (Escherichia coli K-12) (protein)
chain: AERPTLPIPDLLTTDARNRIQLTIGAGQSTFGGKTATTWGYNGNLLGPAVKLQRGKAVTVDIYNQLTEETTLHWHGLEVPGEVDGGPQGIIPPGGKRSVTLNVDQPAATCWFHPHQHGKTGRQVAMGLAGLVVIEDDEILKLMLPKQWGIDDVPVIVQDKKFSADGQIDYQLDVMTAAVGWFGDTLLTNGAIYPQHAAPRGWLRLRLLNGCNARSLNFATSDNRPLYVIASDGGLLPEPVKVSELPVLMGERFEVLVEVNDNKPFDLVTLPVSQMGMAIAPFDKPHPVMRIQPIAISASGALPDTLSSLPALPSLEGLTVRKLQLSMDPMLDMMGMQMLMEKYGDQAMAGMDHSQMMGHMGHGNMNHMNHGGKFDFHHANKINGQAFDMNKPMFAAAKGQYERWVISGVGDMMLHPFHIHGTQFRILSENGKPPAAHRAGWKDTVKVEGNVSEVLVKFNHDAPKEHAYMAHCHLLEHEDTGMMLGFTV
notes: as for B1
**Q.** B2 was tested. Which Km (CueO-WT (358 reverted to Met)) did it give?
**A.** Its Km is 293.18 ± 23.08 µM.

**Q.** And the kcat (CueO-WT (358 reverted to Met))?
**A.** The kcat was 2.52 ± 0.136 s⁻¹.

**Q.** And the kcat/Km (CueO-WT (358 reverted to Met))?
**A.** Its kcat/Km is 8670 M⁻¹ s⁻¹.

B3: CueO (Escherichia coli K-12; G386R/G389D/G391W/H387F/H390Y/H395N/M358I/M385P/M393G/N392E/N394L) (protein)
chain: AERPTLPIPDLLTTDARNRIQLTIGAGQSTFGGKTATTWGYNGNLLGPAVKLQRGKAVTVDIYNQLTEETTLHWHGLEVPGEVDGGPQGIIPPGGKRSVTLNVDQPAATCWFHPHQHGKTGRQVAMGLAGLVVIEDDEILKLMLPKQWGIDDVPVIVQDKKFSADGQIDYQLDVMTAAVGWFGDTLLTNGAIYPQHAAPRGWLRLRLLNGCNARSLNFATSDNRPLYVIASDGGLLPEPVKVSELPVLMGERFEVLVEVNDNKPFDLVTLPVSQMGMAIAPFDKPHPVMRIQPIAISASGALPDTLSSLPALPSLEGLTVRKLQLSMDPILDMMGMQMLMEKYGDQAMAGMDHSQMPRFMDYWEGLNMNHGGKFDFHHANKINGQAFDMNKPMFAAAKGQYERWVISGVGDMMLHPFHIHGTQFRILSENGKPPAAHRAGWKDTVKVEGNVSEVLVKFNHDAPKEHAYMAHCHLLEHEDTGMMLGFTV
notes: as for B1
**Q.** Which results are given for B3?
**A.** Km [2]: 290.65 ± 44.33 µM; kcat [2]: 1.03 ± 0.0613 s⁻¹; kcat/Km [2]: 3500 M⁻¹ s⁻¹

B4: CueO (Escherichia coli K-12; G386S/G389E/G391W/H387F/H390Y/H395S/M358I/M385T/M388A/M393L/N392A/N394L) (protein)
chain: AERPTLPIPDLLTTDARNRIQLTIGAGQSTFGGKTATTWGYNGNLLGPAVKLQRGKAVTVDIYNQLTEETTLHWHGLEVPGEVDGGPQGIIPPGGKRSVTLNVDQPAATCWFHPHQHGKTGRQVAMGLAGLVVIEDDEILKLMLPKQWGIDDVPVIVQDKKFSADGQIDYQLDVMTAAVGWFGDTLLTNGAIYPQHAAPRGWLRLRLLNGCNARSLNFATSDNRPLYVIASDGGLLPEPVKVSELPVLMGERFEVLVEVNDNKPFDLVTLPVSQMGMAIAPFDKPHPVMRIQPIAISASGALPDTLSSLPALPSLEGLTVRKLQLSMDPILDMMGMQMLMEKYGDQAMAGMDHSQMTSFAEYWALLSMNHGGKFDFHHANKINGQAFDMNKPMFAAAKGQYERWVISGVGDMMLHPFHIHGTQFRILSENGKPPAAHRAGWKDTVKVEGNVSEVLVKFNHDAPKEHAYMAHCHLLEHEDTGMMLGFTV
notes: as for B1
**Q.** For B4, which Km [3] is on record?
**A.** The Km was 284.77 ± 25.50 µM.

**Q.** What about the kcat [3] of the same protein?
**A.** The kcat was 0.811 ± 0.0288 s⁻¹.

**Q.** What about the kcat/Km [3] of the same protein?
**A.** The kcat/Km was 2830 M⁻¹ s⁻¹.

B5: CueO (Escherichia coli K-12; G386R/G389D/G391A/H387A/H390Y/H395N/M358I/M385P/M393G/N392E/N394A) (protein)
chain: AERPTLPIPDLLTTDARNRIQLTIGAGQSTFGGKTATTWGYNGNLLGPAVKLQRGKAVTVDIYNQLTEETTLHWHGLEVPGEVDGGPQGIIPPGGKRSVTLNVDQPAATCWFHPHQHGKTGRQVAMGLAGLVVIEDDEILKLMLPKQWGIDDVPVIVQDKKFSADGQIDYQLDVMTAAVGWFGDTLLTNGAIYPQHAAPRGWLRLRLLNGCNARSLNFATSDNRPLYVIASDGGLLPEPVKVSELPVLMGERFEVLVEVNDNKPFDLVTLPVSQMGMAIAPFDKPHPVMRIQPIAISASGALPDTLSSLPALPSLEGLTVRKLQLSMDPILDMMGMQMLMEKYGDQAMAGMDHSQMPRAMDYAEGANMNHGGKFDFHHANKINGQAFDMNKPMFAAAKGQYERWVISGVGDMMLHPFHIHGTQFRILSENGKPPAAHRAGWKDTVKVEGNVSEVLVKFNHDAPKEHAYMAHCHLLEHEDTGMMLGFTV
notes: as for B1
**Q.** How did the Km [4] turn out when B5 was run?
**A.** The Km was 234.51 ± 41.99 µM.

**Q.** What about the kcat [4] of the same protein?
**A.** Its kcat is 1.61 ± 0.238 s⁻¹.

**Q.** And the kcat/Km [4]?
**A.** Its kcat/Km is 6830 M⁻¹ s⁻¹.

B6: CueO (Escherichia coli K-12; M358I) (protein)
chain: AERPTLPIPDLLTTDARNRIQLTIGAGQSTFGGKTATTWGYNGNLLGPAVKLQRGKAVTVDIYNQLTEETTLHWHGLEVPGEVDGGPQGIIPPGGKRSVTLNVDQPAATCWFHPHQHGKTGRQVAMGLAGLVVIEDDEILKLMLPKQWGIDDVPVIVQDKKFSADGQIDYQLDVMTAAVGWFGDTLLTNGAIYPQHAAPRGWLRLRLLNGCNARSLNFATSDNRPLYVIASDGGLLPEPVKVSELPVLMGERFEVLVEVNDNKPFDLVTLPVSQMGMAIAPFDKPHPVMRIQPIAISASGALPDTLSSLPALPSLEGLTVRKLQLSMDPILDMMGMQMLMEKYGDQAMAGMDHSQMMGHMGHGNMNHMNHGGKFDFHHANKINGQAFDMNKPMFAAAKGQYERWVISGVGDMMLHPFHIHGTQFRILSENGKPPAAHRAGWKDTVKVEGNVSEVLVKFNHDAPKEHAYMAHCHLLEHEDTGMMLGFTV
notes: as for B1
**Q.** Which Km does the source give for B6 here?
**A.** The Km was 256.09 ± 9.59 µM.

**Q.** And the kcat?
**A.** Its kcat is 2.24 ± 0.19 s⁻¹.

**Q.** And the kcat/Km?
**A.** Its kcat/Km is 8830 M⁻¹ s⁻¹.
